Reference: patent publication US20110195083A1

Tests used:
Experiment in all cases: cell-based or functional assay
[1] = molecular target: HIV-1 BX08 envelope protein (Env) on pseudovirus (HIV-1 strain BX08)
[2] = molecular target: HIV-1 BaL envelope protein (Env) on pseudovirus (HIV-1 strain Bal)
[3] = molecular target: HIV-1 6535 envelope protein (Env) on pseudovirus (HIV-1 strain 6535)

**Q.** With CD4-mimic peptide CD4M33 as the substance, how does the neutralization IC50, CD4M33 alone [1] read?
**A.** The neutralization IC50, CD4M33 alone was 0.173 µg/mL.

**Q.** What about the neutralization IC50, CD4M33 concentration in combination with serum B714 [1] of the same substance?
**A.** The neutralization IC50, CD4M33 concentration in combination with serum B714 was 0.036 µg/mL.

**Q.** What about the neutralization IC50, CD4M33 concentration in combination with serum B716 [1] of the same substance?
**A.** The neutralization IC50, CD4M33 concentration in combination with serum B716 was 0.036 µg/mL.

**Q.** What about the neutralization IC50, CD4M33 concentration in combination with serum B718 [1] of the same substance?
**A.** The neutralization IC50, CD4M33 concentration in combination with serum B718 was 0.028 µg/mL.

**Q.** And the neutralization IC50, CD4M33 concentration in combination with serum B720 [1]?
**A.** The neutralization IC50, CD4M33 concentration in combination with serum B720 was 0.014 µg/mL.

**Q.** What about the neutralization IC50, CD4M33 alone [2] of the same substance?
**A.** Its neutralization IC50, CD4M33 alone is > 0.25 µg/mL.

**Q.** What about the neutralization IC50, CD4M33 concentration in combination with serum B714 [2] of the same substance?
**A.** The neutralization IC50, CD4M33 concentration in combination with serum B714 was 0.048 µg/mL.

**Q.** And the neutralization IC50, CD4M33 concentration in combination with serum B716 [2]?
**A.** Its neutralization IC50, CD4M33 concentration in combination with serum B716 is 0.057 µg/mL.

**Q.** And the neutralization IC50, CD4M33 concentration in combination with serum B718 [2]?
**A.** The neutralization IC50, CD4M33 concentration in combination with serum B718 was 0.045 µg/mL.

**Q.** And the neutralization IC50, CD4M33 concentration in combination with serum B720 [2]?
**A.** The neutralization IC50, CD4M33 concentration in combination with serum B720 was 0.017 µg/mL.

**Q.** And the neutralization IC50, CD4M33 alone [3]?
**A.** The neutralization IC50, CD4M33 alone was 0.721 µg/mL.

**Q.** And the neutralization IC50, CD4M33 concentration in combination with serum B714 [3]?
**A.** The neutralization IC50, CD4M33 concentration in combination with serum B714 was 0.431 µg/mL.

**Q.** What about the neutralization IC50, CD4M33 concentration in combination with serum B716 [3] of the same substance?
**A.** Its neutralization IC50, CD4M33 concentration in combination with serum B716 is 0.431 µg/mL.

**Q.** What about the neutralization IC50, CD4M33 concentration in combination with serum B718 [3] of the same substance?
**A.** The neutralization IC50, CD4M33 concentration in combination with serum B718 was 0.481 µg/mL.

**Q.** What about the neutralization IC50, CD4M33 concentration in combination with serum B720 [3] of the same substance?
**A.** The neutralization IC50, CD4M33 concentration in combination with serum B720 was 0.189 µg/mL.
